Test results reported in patent US20190315845A1 (ANNEXON, published 2019).

Legend:
human C1q [1] = target: T1, human C1q (human, UniProt P02745 23-245; P02746 28-253; P02747 29-245); assay: SPR Biacore T200, heterogeneous ligand model, ka1; hC1q immobilised (ligand), Fab analyte
T1 construct: Purified human C1q protein (plate-coated in ELISA, ligand or analyte in SPR, in human serum in CH50); also called hC1q; complement factor C1q
Method: (§1) Due to concerns about stability, two chips were prepared; one with hC1q and mC1q (Chip All) as ligands and one with IgG and Fab (Chip A13) as ligands Immobilization for m/h C1q was carried out at a protein concentration of 5 μg/ml in 10 mM acetate buffer pH 5.5, whereas immobilization for IgG and Fab was carried out at a protein concentration of 0.5-2 μg/ml in 10 mM acetate buffer pH 5.0, both on a CMS Series S sensor chip (Biacore).
(§2) The kinetic parameters for both the IgG and Fab interactions with hC1q were in the low picomolar range (Table 6 for 1-to-1 model and Table 7 for the heterogeneous model). In order to avoid avidity, hC1q was initially used as the ligand, however this limited the analysis to single cycle kinetics and the use of more complex models, for example, heterogeneous ligand binding models (Equation 3), that may represent the different forms of hC1q structure that were associated with chemical coupling of a multi-subunit protein to a surface. When hC1q was used as the analyte both IgG and Fab were immobilized at the lowest concentrations possible to avoid avidity. The data was analyzed using a 1-to-1 model and a more complex bivalent analyte model (Equation 4). […] It should be noted that the dissociation rate was too slow to measure accurately with this technique. […]

mouse C1q [2] = target: T2, mouse C1q (mouse, UniProt P98086 23-245; P14106 26-253; Q02105 30-246); assay: SPR Biacore T200, 1:1 model; Fab immobilised (ligand), mC1q analyte; mean of 2 independent analyses
T2 construct: Purified mouse C1q protein; also called mC1q
T2 sequence (P98086 23-245 limits assumed, chain 1 of 3): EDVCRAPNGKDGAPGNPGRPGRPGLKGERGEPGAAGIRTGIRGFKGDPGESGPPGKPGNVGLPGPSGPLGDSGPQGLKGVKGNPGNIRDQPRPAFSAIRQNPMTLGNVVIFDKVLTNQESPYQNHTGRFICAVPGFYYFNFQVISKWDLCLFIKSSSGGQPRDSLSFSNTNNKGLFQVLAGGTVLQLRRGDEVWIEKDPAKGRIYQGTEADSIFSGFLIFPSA
T2 sequence (P14106 26-253 limits assumed, chain 2 of 3): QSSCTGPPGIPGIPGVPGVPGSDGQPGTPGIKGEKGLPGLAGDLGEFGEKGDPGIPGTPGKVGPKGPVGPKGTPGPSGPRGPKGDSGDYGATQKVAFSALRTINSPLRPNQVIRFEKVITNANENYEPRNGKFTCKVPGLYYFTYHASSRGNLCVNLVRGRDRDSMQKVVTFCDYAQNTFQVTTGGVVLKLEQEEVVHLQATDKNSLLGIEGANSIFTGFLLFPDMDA
T2 sequence (Q02105 30-246 limits assumed, chain 3 of 3): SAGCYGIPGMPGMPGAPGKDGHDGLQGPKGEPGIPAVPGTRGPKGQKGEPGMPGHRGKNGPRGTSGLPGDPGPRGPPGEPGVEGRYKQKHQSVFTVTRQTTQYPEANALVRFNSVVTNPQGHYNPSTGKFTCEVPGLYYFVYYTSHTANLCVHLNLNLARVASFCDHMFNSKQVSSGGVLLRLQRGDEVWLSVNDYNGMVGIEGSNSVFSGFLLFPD
Method: as §1
(§3) The association phase was monitored for 500 seconds to allow some of the higher concentrations of analyte to reach steady state. In order to observe a sufficient signal decrease (>10%) during the dissociation phase of the kinetic cycle, dissociation was measured for up to 10,800 seconds to allow sufficient dissociation to occur for accurate assessment of the kinetics. The signal from the reference channel Fₑ1 was subtracted from that of Fₑ2, Fₑ3, and Fₑ4.

mouse C1q [3] = target: T2, mouse C1q; assay: SPR Biacore T200, 1:1 model; mC1q immobilised (ligand), Fab analyte; analysis 1
human C1q [4] = target: T1, human C1q; assay: SPR Biacore T200, heterogeneous ligand model, ka2; hC1q immobilised (ligand), Fab analyte
Method: as §1, §2

mouse C1q [5] = target: T2, mouse C1q; assay: SPR Biacore T200, 1:1 model; Fab immobilised (ligand), mC1q analyte; analysis 1
human C1q [6] = target: T1, human C1q; assay: SPR Biacore T200, heterogeneous ligand model, KD1; hC1q immobilised (ligand), Fab analyte
Method: as §1, §2

human C1q [7] = target: T1, human C1q; assay: SPR Biacore T200, heterogeneous ligand model, kd1; hC1q immobilised (ligand), Fab analyte
mouse C1q [8] = target: T2, mouse C1q; assay: SPR Biacore T200, 1:1 model; Fab immobilised (ligand), mC1q analyte; analysis 2
mouse C1q [9] = target: T2, mouse C1q; assay: SPR Biacore T200, 1:1 model; mC1q immobilised (ligand), Fab analyte; mean of 2 independent analyses
Method: as §1
(§4) Both C1q complexes were immobilized based on concerns over avidity (i.e., two immobilized antibodies binding C1q), and the very high levels of NSB observed using mC1q and to a lesser extent hC1q to the CM5 surface (charge mediated estimated C1q: pI 8-9). Single cycle kinetics (SCK) were used initially to derive estimated kinetic constants due to uncertainty over the stability of the C1q complex and the regeneration conditions. Full kinetic analysis was performed after SCK. The ligand stability control injections performed during the kinetic run indicated either the regeneration conditions used were inactivating the ligand, or the ligand itself was unstable at 25° C. during the 48 hours required for kinetic analysis.
as §3

human C1q [10] = target: T1, human C1q; assay: SPR Biacore T200, heterogeneous ligand model, KD2; hC1q immobilised (ligand), Fab analyte
Method: as §1, §2

human C1q [11] = target: T1, human C1q; assay: SPR Biacore T200, 1:1 model; Fab immobilised (ligand), hC1q analyte
mouse C1q [12] = target: T2, mouse C1q; assay: SPR Biacore T200, 1:1 model; mC1q immobilised (ligand), Fab analyte; analysis 2
Method: as §1, §4, §3

human C1q [13] = target: T1, human C1q; assay: SPR Biacore T200, 1:1 model, single cycle kinetics; hC1q immobilised (ligand), Fab analyte
human C1q [14] = target: T1, human C1q; assay: SPR Biacore T200, heterogeneous ligand model, kd2; hC1q immobilised (ligand), Fab analyte
Method: as §1, §2

T1 sequence (P02745 23-245 limits assumed, chain 1 of 3): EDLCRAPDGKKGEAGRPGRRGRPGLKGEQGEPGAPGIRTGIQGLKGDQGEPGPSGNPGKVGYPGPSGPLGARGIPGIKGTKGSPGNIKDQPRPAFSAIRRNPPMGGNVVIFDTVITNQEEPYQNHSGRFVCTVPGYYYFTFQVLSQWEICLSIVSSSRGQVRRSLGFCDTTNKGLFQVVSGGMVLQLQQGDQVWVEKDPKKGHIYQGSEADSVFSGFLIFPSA
T1 sequence (P02746 28-253 limits assumed, chain 2 of 3): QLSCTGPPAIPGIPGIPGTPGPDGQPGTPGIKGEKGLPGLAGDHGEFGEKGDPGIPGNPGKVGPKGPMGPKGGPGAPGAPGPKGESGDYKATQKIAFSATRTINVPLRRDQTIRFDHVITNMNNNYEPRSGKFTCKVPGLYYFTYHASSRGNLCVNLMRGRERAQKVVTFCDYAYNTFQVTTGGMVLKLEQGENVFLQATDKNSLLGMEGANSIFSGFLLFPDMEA
T1 sequence (P02747 29-245 limits assumed, chain 3 of 3): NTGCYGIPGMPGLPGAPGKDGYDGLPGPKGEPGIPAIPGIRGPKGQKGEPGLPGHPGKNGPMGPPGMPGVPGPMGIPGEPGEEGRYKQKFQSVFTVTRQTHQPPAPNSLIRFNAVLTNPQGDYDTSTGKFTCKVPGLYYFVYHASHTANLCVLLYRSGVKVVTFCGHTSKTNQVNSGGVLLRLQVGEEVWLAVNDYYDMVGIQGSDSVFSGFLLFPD

B1: Fab fragment of humanized anti-C1q antibody VH3/Vκ3 (Fab)
heavy: QVQLVQSGAELKKPGASVKVSCKSSGYHFTSYWMHWVKQAPGQGLEWIGVIHPNSGSINYNEKFESRVTITVDKSTSTAYMELSSLRSEDTAVYYCAGERDSTEVLPMDYWGQGTTVTVSS
light: DVQITQSPSSLSASLGERATINCRASKSINKYLAWYQQKPGKAPKLLIYSGSTLQSGIPARFSGSGSGTDFTLTISSLEPEDFAMYYCQQHNEYPLTFGQGTKLEIK
notes: also called Fab VH3/Vκ3; Fab-VH3/Vκ3; not shown: CH1 part of the human IgG4 (S241P L248E) constant region left after digestion of the IgG with a Fab Micro Preparation Ki; human kappa light chain constant region
Which results are given for B1?
kon (human C1q [1]): 130000 M⁻¹ s⁻¹; Kd (mouse C1q [2]): 123 nM; koff (mouse C1q [2]): 0.032 s⁻¹; kon (mouse C1q [2]): 310000 M⁻¹ s⁻¹; Kd (mouse C1q [3]): 748 nM; koff (mouse C1q [3]): 0.0046 s⁻¹; kon (mouse C1q [3]): 6230 M⁻¹ s⁻¹; kon (human C1q [4]): 18000 M⁻¹ s⁻¹; Kd (mouse C1q [5]): 126 nM; koff (mouse C1q [5]): 0.056 s⁻¹; kon (mouse C1q [5]): 450000 M⁻¹ s⁻¹; Kd (human C1q [6]): 175 nM; koff (human C1q [7]): 2.3e-05 s⁻¹; Kd (mouse C1q [8]): 121 nM; Kd (mouse C1q [9]): 677 nM; koff (mouse C1q [9]): 0.0043 s⁻¹; kon (mouse C1q [9]): 6500 M⁻¹ s⁻¹; Kd (human C1q [10]): 3.4 nM; Kd (human C1q [11]): 0.0086 nM; koff (human C1q [11]): 9.1e-06 s⁻¹; kon (human C1q [11]): 1.1e+06 M⁻¹ s⁻¹; Kd (mouse C1q [12]): 607 nM; koff (mouse C1q [12]): 0.0041 s⁻¹; kon (mouse C1q [12]): 6900 M⁻¹ s⁻¹; Kd (human C1q [13]): < 0.192 nM; koff (human C1q [13]): < 1e-05 s⁻¹; kon (human C1q [13]): 52000 M⁻¹ s⁻¹; koff (human C1q [14]): 6.3e-08 s⁻¹
